Measurements taken from publication PMC4552821.
Read-outs that look alike come from different tables or passages of the source.

Tests used:
[1] = target: Bone morphogenetic protein 2 (rhBMP-2) (UniProt P12643); test: SPR (Reichert SR 7000 refractometer); conditions: pH 7.4; 20°C; 154 mM NaCl plus 6.7 mM phosphates (PBS); HyClone PBS (154 mM NaCl, 1.06 mM KH2PO4, 5.6 mM Na2HPO4) at pH 7.4. The pH 4.5 solvent is the same PBS acidified with d
[2] = target: Kerateine (KTN) extract, in solution (analyte); test: SPR (Reichert SR 7000 refractometer); conditions: 20°C, no added salt, unbuffered
[3] = target: kerateine (reduced hair keratin extract) (Homo sapiens) (UniProt Q15323); test: SPR
[4] = target: kerateine (reduced hair keratin extract) (Homo sapiens) (UniProt Q15323); test: SPR; remark: listed apart in the source
[5] = pH 7, deionized water, water (pH 7)
[6] = pH 12, 10 mM NaOH, 10 mM NaOH (pH 12)

Sequence of Bone morphogenetic protein 2 (rhBMP-2) (P12643 whole entry): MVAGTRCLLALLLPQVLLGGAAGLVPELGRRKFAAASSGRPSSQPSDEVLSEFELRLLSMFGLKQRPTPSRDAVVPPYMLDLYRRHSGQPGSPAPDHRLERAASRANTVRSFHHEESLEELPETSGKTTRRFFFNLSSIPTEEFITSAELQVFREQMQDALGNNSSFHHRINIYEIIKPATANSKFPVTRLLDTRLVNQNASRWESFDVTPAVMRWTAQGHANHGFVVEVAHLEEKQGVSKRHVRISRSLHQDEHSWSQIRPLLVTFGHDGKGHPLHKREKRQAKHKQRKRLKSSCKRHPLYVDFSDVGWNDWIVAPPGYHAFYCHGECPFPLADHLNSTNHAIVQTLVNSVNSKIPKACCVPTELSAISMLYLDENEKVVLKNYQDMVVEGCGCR

Substance	KD [1] [µM]	t1/2 (half-life of the complex) [1] [min]	ΔG (dissociation energy) [1] [kcal/mol]	KD [2, 5] [µM]	t1/2 (half-life of the complex) [2, 5] [min]	ΔG (dissociation energy) [2, 5] [kcal/mol]	KD [2, 6] [µM]	t1/2 (half-life of the complex) [2, 6] [min]	ΔG (dissociation energy) [2, 6] [kcal/mol]	Kd [3] [µM]	Kd [4] [µM]
Kerateine (KTN) extract, chemisorbed monolayer on gold	32	3.73	6.0	180	1.28	5.0	100	1.77	5.4	–	–
kerateine (reduced hair keratin extract), Q15323	–	–	–	–	–	–	–	–	–	180	100
